B1: DVD-45 (bispecific antibody, human IgG1, kappa)
heavy: not shown
light: DIVLTQSPASLAVSLGQRATISCRASESVGNFGISFMNWFQQKPGQPPKLLIYTASNQGSGVPARFSGSGSGTDFSLNIHPMEEDDSAMYFCQQSKEIPWTFGGGTKLEIKSPAPNLLGGPAIQMTQSPSSLSASVGDRVTITCQASQSINNELSWYQQKPGKAPKLLIYRASTLASGVPSRFSGSGSGTDFTLTISSLQPDDFATYYCQQGYSLRNIDNAFGGGTKVEIKRTVAAPSVFIFPPSDEQLKSGTASVVCLLNNFYPREAKVQWKVDNALQSGNSQESVTEQDSKDSTYSLSSTLTLSKADYEKHKVYACEVTHQGLSSPVTKSFNRGEC
notes: Bispecific, tetravalent human IgG1 dual variable domain IgG: variable domains of Mab4 appended to the N-termini of the variable domains of Mab5
B2: Mab5 (antibody, human IgG1, kappa, V domains shown)
VH: EVQLVESGGGLVQPGGSLRLSCAASGFSLSNYYVTWVRQAPGKGLEWVGIIYGSDETAYATSAIGRFTISRDNSKNTLYLQMNSLRAEDTAVYYCARDDSSDWDAKFNLWGQGTLVTVSS
VL: AIQMTQSPSSLSASVGDRVTITCQASQSINNELSWYQQKPGKAPKLLIYRASTLASGVPSRFSGSGSGTDFTLTISSLQPDDFATYYCQQGYSLRNIDNAFGGGTKVEIKR
B3: Mab4 (antibody, human IgG1, kappa)
heavy: not shown
light: DIVLTQSPASLAVSLGQRATISCRASESVGNFGISFMNWFQQKPGQPPKLLIYTASNQGSGVPARFSGSGSGTDFSLNIHPMEEDDSAMYFCQQSKEIPWTFGGGTKVEIKRTVAAPSVFIFPPSDEQLKSGTASVVCLLNNFYPREAKVQWKVDNALQSGNSQESVTEQDSKDSTYSLSSTLTLSKADYEKHKVYACEVTHQGLSSPVTKSFNRGEC
B4: Mab4-5L5H (bispecific antibody, human IgG1, kappa)
heavy: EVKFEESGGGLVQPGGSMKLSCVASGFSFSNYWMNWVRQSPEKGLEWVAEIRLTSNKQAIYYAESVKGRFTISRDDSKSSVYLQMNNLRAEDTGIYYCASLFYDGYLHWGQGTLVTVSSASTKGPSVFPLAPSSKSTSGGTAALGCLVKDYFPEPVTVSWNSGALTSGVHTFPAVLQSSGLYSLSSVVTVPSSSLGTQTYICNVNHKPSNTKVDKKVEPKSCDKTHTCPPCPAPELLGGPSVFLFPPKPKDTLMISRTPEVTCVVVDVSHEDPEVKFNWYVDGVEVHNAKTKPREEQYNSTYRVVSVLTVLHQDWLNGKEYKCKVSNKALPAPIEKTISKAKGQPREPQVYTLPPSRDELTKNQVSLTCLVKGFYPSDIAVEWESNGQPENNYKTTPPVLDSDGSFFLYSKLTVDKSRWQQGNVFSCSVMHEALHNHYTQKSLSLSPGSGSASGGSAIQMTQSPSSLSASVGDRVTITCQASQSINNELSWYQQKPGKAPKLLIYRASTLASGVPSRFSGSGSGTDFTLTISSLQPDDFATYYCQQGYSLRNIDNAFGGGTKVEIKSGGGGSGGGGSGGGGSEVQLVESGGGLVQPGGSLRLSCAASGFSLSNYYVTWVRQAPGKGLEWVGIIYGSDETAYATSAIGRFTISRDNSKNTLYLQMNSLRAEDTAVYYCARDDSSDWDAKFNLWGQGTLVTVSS
light: B3 light
notes: Bispecific, tetravalent human IgG1-scFv fusion: Mab5 scFv (VL-VH) fused to the C-terminus of CH3 of Mab4
B5: DVD-D5 (antibody)
heavy: not shown
light: DTQMTQSPSSLSASVGDRVTITCRASQSISSYLAWYQQKPGKAPKLLIYAASSLYSGVPSRFSGSGSGTDFTLTISSLQPEDFATYYCQQYSSLPYTFGQGTKLEIKSPAPNLLGGPAIQMTQSPSSLSASVGDRVTITCQASQSINNELSWYQQKPGKAPKLLIYRASTLASGVPSRFSGSGSGTDFTLTISSLQPDDFATYYCQQGYSLRNIDNAFGGGTKVEIKRTVAAPSVFIFPPSDEQLKSGTASVVCLLNNFYPREAKVQWKVDNALQSGNSQESVTEQDSKDSTYSLSSTLTLSKADYEKHKVYACEVTHQGLSSPVTKSFNRGEC
notes: Monospecific control: dual variable domain human IgG1 like DVD-45 but with the Mab4 VL replaced by a germline-like dummy VL

Experiments:
human IL-6 [1] = molecular target: T1, human IL-6 (human, UniProt P05231 30-212); assay: cell-based or functional assay
[2] = molecular target: T2, Human C1q (Calbiochem, 204876) (human, UniProt P02745 23-245; P02746 28-253; P02747 29-245); assay: ELISA on coated human C1q; preformed complex of antibody and IL6, 11 nM binding sites; anti-human Fc HRP detection
T2 construct: Bought human C1q coated on ELISA plates; also called complement C1q; complement component C1q
Experimental: (§1) Determination of immune complex binding to complement C1q was performed using ELISA. Human C1q (Calbiochem, 204876) was coated onto maxisorp ELISA plates (NUNC, Denmark) at a concentration of 16 microgram/ml in a buffer containing 10 mM Tris HCl, pH 8 for 1 h and washed twice with 1× phosphate buffered saline supplemented with 0.1% Tween-20 (Merck KGaA, Germany, 8.17072.1000) (PBST). Plates were blocked with 2% skimmed milk powder (Roth, Germany T145.3) in PBST for 30 min and again washed twice with PBST. The prepared plates were then incubated with a preformed complex of antibody and IL6, at an equimolar IL6 and antibody binding site concentration of 11 nM, or with 11 nM antibody incubated without IL6, for 30 min.

[3] = molecular target: T2, Human C1q (Calbiochem, 204876); assay: ELISA on coated human C1q; antibody preincubated with equimolar IL6 or without IL6; anti-human Fc HRP detection
Experimental: as §1

human IL-6 [4] = molecular target: T1, human IL-6; assay: inferred from IL6-dependent signal in C1q ELISA; antibody preincubated with equimolar IL6 at 11 nM
Experimental: as §1

T2 sequence (P02745 23-245 limits assumed, chain 1 of 3): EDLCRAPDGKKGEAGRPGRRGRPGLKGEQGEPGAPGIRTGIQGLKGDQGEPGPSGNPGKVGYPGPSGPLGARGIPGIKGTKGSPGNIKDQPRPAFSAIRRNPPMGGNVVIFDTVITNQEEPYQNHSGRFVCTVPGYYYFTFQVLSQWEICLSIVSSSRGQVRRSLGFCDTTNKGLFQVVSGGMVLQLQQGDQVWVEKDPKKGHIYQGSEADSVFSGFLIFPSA
T2 sequence (P02746 28-253 limits assumed, chain 2 of 3): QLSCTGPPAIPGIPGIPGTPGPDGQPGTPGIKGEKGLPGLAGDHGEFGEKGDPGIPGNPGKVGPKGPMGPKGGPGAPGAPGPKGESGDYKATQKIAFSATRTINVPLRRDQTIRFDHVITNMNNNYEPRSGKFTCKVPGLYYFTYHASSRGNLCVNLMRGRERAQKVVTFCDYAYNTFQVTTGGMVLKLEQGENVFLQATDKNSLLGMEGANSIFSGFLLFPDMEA
T2 sequence (P02747 29-245 limits assumed, chain 3 of 3): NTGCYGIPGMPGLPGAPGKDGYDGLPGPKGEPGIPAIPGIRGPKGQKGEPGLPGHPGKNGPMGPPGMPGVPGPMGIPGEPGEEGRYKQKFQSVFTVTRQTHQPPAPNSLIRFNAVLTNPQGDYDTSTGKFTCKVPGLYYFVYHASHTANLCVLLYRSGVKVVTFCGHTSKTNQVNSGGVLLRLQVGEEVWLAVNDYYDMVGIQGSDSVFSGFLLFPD

Row | Binder | IC50 on 7TD1 cells (pM) (human IL-6 [1]) | IC50 on B9 cells (pM) (human IL-6 [1]) | binding result [2] | binding result [3] | binding result (human IL-6 [4])
1 | B1 | 1.3 | 2.9 | binds | – | –
2 | B2 | 19.9 | 26.1 | – | – | –
3 | B3 | 2.6 | 8.4 | – | no binding (tested: 11 nM) | –
4 | B4 | – | – | binds | – | binds
5 | B5 | – | – | – | no binding (tested: 11 nM) | –
